According to publication PMC2529288:

Target: Secretory leukoproteinase inhibitor (human (endogenous in A549)) (UniProt P03973)
Sequence of UniProt P03973 (P03973 26-132): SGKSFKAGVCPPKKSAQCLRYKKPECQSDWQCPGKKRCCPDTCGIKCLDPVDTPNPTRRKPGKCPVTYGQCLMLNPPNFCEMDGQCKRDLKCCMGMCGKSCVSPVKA

## neutrophil elastase (from UniProt P08246 30-267) (enzyme)
  SLPI concentration (ELISA) in the lower Transwell compartment of A549 cells, 10 min after 10 nM NE was added to the lower compartment only, as % of control wells: 8.6 % of control
  SLPI concentration (ELISA) in the upper Transwell compartment of A549 cells, 10 min after 10 nM NE was added to the upper compartment only, as % of control wells: 10.6 % of control
